Assay results taken from the supplement of paper PMC7877785.
± gives the uncertainty stated by the source.

Assay: self-splicing fitness, log relative to wild type (ln ratio); higher = more splicing; Tetrahymena group I intron in knt gene, E. coli kanamycin selection, DiMSum; sequences stand for … in CUCUCU…GGAGGGAAAAGUUAUCAGGCAUGCACCUGGUAGCUAGUCUUUAAACCAAUAGAUUGCAUCGGUUUAAAAGGCAAGACCGUCAAAUUGCGGGAAAGGGGUCAACAGCCGUUCAGUACCAAGUCUCAGGGGAAACUUUGAGAUGGCCUUGCAAAGGGUAUGGUAAUAAGCUGACGGACAUGGUCCUAACCACGCAGCCAAGUCCUAAGUCAACAGAUCUUCUGUUGAUAUGGAUGCAGUUCACAGACUAAAUGUCGGUCGGGGAAGAUGUAUUCUUCUCAUAAGAUAUAGUCGGACCUCUCCUUAAUGGGAGCUAGCGGAUGAAGUGAUGCAACACUGGAGCCGCUGGGAACUAAUUUGUAUGCGAAAGUAUAUUGAUUAGUUUUGGAGUACUCGUGGUCG
In short: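 Library with all eight P1ex-region intron nucleotides randomised, intron inside the knt kanamycin-resistance gene on pET-22b(+), in E. coli BL21(DE3). Cells grew overnight at 37°C or 30°C on LB agar with or without 25 μg/mL kanamycin (plus 100 μg/mL carbenicillin, 50 μM IPTG, 0.2% rhamnose), in six replicate transformations. Pooled colonies were amplicon-sequenced on Illumina HiSeq 2500. DiMSum fitness is the error-weighted combination of wild-type-normalised replicate fold changes, kanamycin versus none.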

| Sequence | self-splicing fitness (ln) (30 °C) | self-splicing fitness (ln) (37 °C) |
| --- | --- | --- |
| GUACAGCAAUAUUACGACCU | -0.715 ± 0.21 | -0.152 ± 0.24 |
| UACUAGCAAUAUUACGCGGC | -4.73 ± 0.46 | -2.95 ± 0.4 |
| CUGUAGCAAUAUUACGCUUG | -2.62 ± 0.14 | -2.02 ± 0.16 |
| CAGCAGCAAUAUUACGUAUG | -2.19 ± 0.1 | -2.5 ± 0.15 |
| UGCCAGCAAUAUUACGUCCU | -1.6 ± 0.14 | 0.244 ± 0.14 |
| GGAAAGCAAUAUUACGUCCU | -3.68 ± 0.21 | -1.14 ± 0.14 |
| UCGCAGCAAUAUUACGGAUU | -3.46 ± 0.17 | -2.51 ± 0.18 |
| CAAAAGCAAUAUUACGAAUC | -4.86 ± 0.38 | -2.71 ± 0.21 |
| GGACAGCAAUAUUACGACGA | -1.77 ± 0.16 | -0.403 ± 0.19 |
| GAUCAGCAAUAUUACGGUUC | -2.83 ± 0.23 | -0.31 ± 0.14 |
| AUCGAGCAAUAUUACGGUAU | -2.46 ± 0.13 | -1.12 ± 0.11 |
| AAGUAGCAAUAUUACGUUUA | -1.63 ± 0.13 | -0.835 ± 0.11 |
| CAGUAGCAAUAUUACGAGGU | – | -2.88 ± 0.34 |
| AAGUAGCAAUAUUACGUCGC | -2.54 ± 0.25 | -1.8 ± 0.23 |
| CACCAGCAAUAUUACGUCGU | -3.78 ± 0.13 | -1.83 ± 0.097 |
| CUUAAGCAAUAUUACGUUUU | -4.2 ± 0.25 | -2.07 ± 0.21 |
| AGGGAGCAAUAUUACGAAUC | – | -2.43 ± 0.29 |
| CUUAAGCAAUAUUACGCAAG | -3.07 ± 0.41 | -2.58 ± 0.34 |
| ACGCAGCAAUAUUACGUGUC | -3.37 ± 0.14 | -2.71 ± 0.2 |
| CCUCAGCAAUAUUACGUUUU | -4.52 ± 0.27 | -3.03 ± 0.17 |

| Sequence | self-splicing fitness (ln) (30 °C) | self-splicing fitness (ln) (37 °C) |
| --- | --- | --- |
| UCCCAGCAAUAUUACGCUGC | -3.59 ± 0.24 | -2.75 ± 0.34 |
| CGGGAGCAAUAUUACGUUUC | -3.92 ± 0.46 | – |
| UUAUAGCAAUAUUACGAUUC | -2.51 ± 0.27 | -1.17 ± 0.31 |
| AGGCAGCAAUAUUACGAUUA | -1.12 ± 0.1 | -0.936 ± 0.095 |
| CCUGAGCAAUAUUACGGGGC | -3.49 ± 0.28 | – |
| CCUGAGCAAUAUUACGUUCC | -2.52 ± 0.28 | -2.5 ± 0.42 |
| UUCAAGCAAUAUUACGAGGG | -3.56 ± 0.23 | -1.91 ± 0.17 |
| ACAUAGCAAUAUUACGAAAU | -3.43 ± 0.19 | -2.75 ± 0.26 |
| GGUGAGCAAUAUUACGCUUG | -3.71 ± 0.29 | -3.44 ± 0.33 |
| CCAGAGCAAUAUUACGGUAU | -3.47 ± 0.2 | -2.75 ± 0.26 |
| GAGUAGCAAUAUUACGUUAC | -4.57 ± 0.33 | -1.57 ± 0.17 |
| GUCAAGCAAUAUUACGGGGG | -4.02 ± 0.46 | -2.86 ± 0.34 |
| UCUUAGCAAUAUUACGCGGG | -2.21 ± 0.22 | -2.5 ± 0.34 |
| UCGUAGCAAUAUUACGAAGA | -3.36 ± 0.5 | – |
| CCCCAGCAAUAUUACGAGGU | -3.6 ± 0.12 | -2.23 ± 0.12 |
| UCAUAGCAAUAUUACGGAAC | -4.02 ± 0.47 | – |
| CGACAGCAAUAUUACGAGAU | -3.16 ± 0.23 | -2.01 ± 0.21 |
| GCGGAGCAAUAUUACGCUCA | -0.528 ± 0.3 | -0.54 ± 0.26 |
| AAACAGCAAUAUUACGGUAC | -3.52 ± 0.2 | -2.75 ± 0.26 |
